Experimental data as given in publication PMC8041789.

Tests used:
[1] = molecular target: von Willebrand factor-binding protein (recombinant vWbp) (S. aureus); experiment: AFM single-molecule force spectroscopy; vWF-modified tips probing vWbp-modified gold supports (NHS/EDC coupling); PBS; 10 µm x 10 µm areas
[2] = molecular target: clumping factor A (ClfA wild type) on S. aureus ClfA+ cells (S. aureus) (UniProt Q53653); experiment: AFM single-molecule force spectroscopy; vWbp-modified tips probing ClfA+ cells; contact time 500 ms before retraction; PBS
[3] = molecular target: clumping factor A (ClfA wild type) on S. aureus ClfA+ cells (S. aureus) (UniProt Q53653); experiment: AFM single-molecule force spectroscopy; vWbp-modified tips probing ClfA+ cells; minimum contact time (~100 ms); PBS

von Willebrand factor (human plasma vWF) (from UniProt P04275 764-2813) (natural protein)
binding frequency [1]: 24%
rupture force [1]: 136 pN

von Willebrand factor-binding protein (recombinant vWbp) (natural protein)
binding frequency [2]: 11%
rupture force [2]: 446 pN
binding frequency [3]: 3%
